Substrate in data set [1]: C[n+]1cn([C@@H]2O[C@H](COP(=O)(O)O)[C@@H](O)[C@H]2O)c2nc(N)[nH]c(=O)c21
As to the kind of experiment: FDH-coupled formaldehyde release demethylation assay. The class given is biochemical, human. Conditions: other: substrate of ALKBH6, Michaelis-Menten; 37.0 °C. As for the experimental part:
(§1) NMPs including 1meAMP (Jena Bioscience, NU-1029-1,) 7meGMP (Jena Bioscience, NU-1135S), 6me-AMP (Sigma, M2780) were purchased. N-methylated deoxy-NMPs were prepared by methylating chemically synthesized 30-mer oligonucleotide containing either dA, dG, dC, or dT by MMS (5%, v/v) (0.59 M) MMS (Sigma, 129925) and purified as described before ([17]). The oligonucleotides were digested with nuclease P1 (NEB) at 37 °C for 4 h to produce deoxy-NMPs. After heat inactivating the nuclease, dNMPs were purified by HPLC and used for the demethylation reaction. N-methylated NMPs were purified similarly, using RNA as the starting material. For the demethylation reaction, ALKBH6 (1 μM) and me-dNMPs (1 mM) were mixed in the dioxygenase reaction buffer and incubated at 37 °C for 30 min. Formaldehyde release was detected by FDH-coupled DNA repair assay as described before ([32], [33]). Briefly, 1 mM NAD+ and 0.01 U FDH were added to the dioxygenase reaction buffer containing methylated nucleotide and ALKBH6. NADH generated was detected by the characteristic absorption peak (340 nm) using a 96-well multimode reader (Synergy, Biotek Instrument). Formaldehyde production was quantified from the standard curve and the initial velocities were determined using various substrate concentrations. The results were plotted and analyzed using GraphPad Prism.

Substrate in data set [2]: C[n+]1cnc2c(ncn2[C@@H]2O[C@H](COP(=O)(O)O)[C@@H](O)[C@H]2O)c1N
Described as above. The class given is biochemical, human. The settings on record: other: substrate of ALKBH6, Michaelis-Menten; 37.0 °C. The protocol: as §1

B1: ALKBH6 (Homo sapiens) (protein)
chain: MEEQDARVPALEPFRVEQAPPVIYYVPDFISKEEEEYLLRQVFNAPKPKWTQLSGRKLQNWGGLPHPRGMVPERLPPWLQRYVDKVSNLSLFGGLPANHVLVNQYLPGEGIMPHEDGPLYYPTVSTISLGSHTVLDFYEPRRPEDDDPTEQPRPPPRPTTSLLLEPRSLLVLRGPAYTRLLHGIAAARVDALDAASSPPNAAACPSARPGACLVRGTRVSLTIRRVPRVLRAGLLLGK
notes: His-tag; made in house
As to B1, in data set [1], the Km (in general, the substrate concentration at which the rate is half of its maximum) is 1.03 µM; the kcat – broadly, the number of substrate molecules converted per active site and unit of time at saturation – is 0.167 s⁻¹. For the same protein, in data set [2], the Michaelis-Menten constant (Km) came to 0.96 µM and the kcat stood at 0.18 s⁻¹.

These data come from paper PMC12494543, “Identification of ALKBH6 as a nucleotide demethylase with a distinct substrate preference” (The Journal of Biological Chemistry, 2025).
